Reference: US10280205B2, “Method for treating cancer with an activated T lymphocyte that selectively recognizes a cancer cell consisting of specific peptide” (immatics biotechnologies GmbH, priority 2015, dated 2019)

molecular target: HLA-A*02:01 (Homo sapiens, UniProt P04439, D140Y/D185E/D98H/E176V/E277Q/G131W/G231S/I119V/I121R/I166T/I218V/L300P/L318F/N151K/N90K/P208A/P217A/Q86G/Q94H/R138H/R169H/T345S); assay: MHC binding assay: UV-ligand exchange with beta2m ELISA (exchange yield); conditions: binding to HLA-A*02:01, β2m ELISA
Summary of the method: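 Exchange yield reflects how much β2m remains bound, measured by ELISA: streptavidin capture of 100-fold diluted monomers, HRP anti-β2m at 37° C. for 1 h, TMB read at 450 nm. Monomers come from UV cleavage of a conditional HLA-A*02:01 ligand in the presence of the candidate peptide.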

Substance	Peptide exchange (MHC class I binding score, peptide exchange yield)
81 (FLFSQLQYL; listed as Homo sapiens) [compound 81]	“++” (≥20% = ++)
306 (ALVNVQIPL; listed as Homo sapiens) [compound 306]	“+++” (≥50 = +++)
469 (YLASDEITTV; listed as Homo sapiens) [compound 469]	“+++” (≥50 = +++)
557 (KLYDDMIRL; listed as Homo sapiens) [compound 557]	“+++” (≥50 = +++)
115 (AIAGAGILYGV; listed as Homo sapiens) [compound 115]	“++” (≥20% = ++)
459 (ALITEVVRL; listed as Homo sapiens) [compound 459]	“++” (≥20% = ++)
240 (ILLEQAFYL; listed as Homo sapiens) [compound 240]	“+++” (≥50 = +++)
433 (AMLNEPWAV; listed as Homo sapiens) [compound 433]	“+++” (≥50 = +++)
335 (YSLSSVVTV; listed as Homo sapiens) [compound 335]	“+++” (≥50 = +++)
573 (ILVANAIVGV; listed as Homo sapiens) [compound 573]	“+++” (≥50 = +++)
6 (VLVSDGVHSV; listed as Homo sapiens) [compound 6]	“+++” (≥50 = +++)
295 (VLDRESPNV; listed as Homo sapiens) [compound 295]	“+++” (≥50 = +++)
545 (LLADLLHNV; listed as Homo sapiens) [compound 545]	“+++” (≥50 = +++)
207 (GLTSTNAEV; listed as Homo sapiens) [compound 207]	“++” (≥20% = ++)
132 (LLVEQPPLAGV; listed as Homo sapiens) [compound 132]	“+++” (≥50 = +++)
589 (KLYPQLPAEI; listed as Homo sapiens) [compound 589]	“+++” (≥50 = +++)
571 (LLLTTIPQI; listed as Homo sapiens) [compound 571]	“+++” (≥50 = +++)
272 (ALGNTVPAV; listed as Homo sapiens) [compound 272]	“+++” (≥50 = +++)
447 (QLVPALAKV; listed as Homo sapiens) [compound 447]	“++” (≥20% = ++)
382 (ALQNYIKEA; listed as Homo sapiens) [compound 382]	“++” (≥20% = ++)
153 (FLIANVLYL; listed as Homo sapiens) [compound 153]	“+” (≥10% = +)
442 (GLLGGGGVLGV; listed as Homo sapiens) [compound 442]	“+++” (≥50 = +++)
559 (VTVPPGPSL; listed as Homo sapiens) [compound 559]	“++” (≥20% = ++)
370 (SLLQDLVSV; listed as Homo sapiens) [compound 370]	“+++” (≥50 = +++)
510 (KLYSVVSQL; listed as Homo sapiens) [compound 510]	“++” (≥20% = ++)
158 (KLFDVDEDGYI; listed as Homo sapiens) [compound 158]	“+++” (≥50 = +++)
512 (SLSEIVPCL; listed as Homo sapiens) [compound 512]	“+++” (≥50 = +++)
22 (IMEENPGIFAV; listed as Homo sapiens) [compound 22]	“+++” (≥50 = +++)
